The source of these data is the supplement of paper PMC10065799, “High-throughput profiling of sequence recognition by tyrosine kinases and SH2 domains using bacterial peptide display” (eLife, 2023).

One data set concerns the target Jak2 (UniProt O60674). The experiment in a line: phosphorylation enrichment, bacterial display (enrichment ratio); higher = better substrate or ligand; peptides without Tyr show the background.
Another data set has as its target Fyn (UniProt P06241). The description is as above.
For the next data set, the system named is c-Src. Described as above.
In a further data set the target is MERTK (UniProt Q12866). The description is as above.
MERTK, sequence (Q12866 whole entry, looked up): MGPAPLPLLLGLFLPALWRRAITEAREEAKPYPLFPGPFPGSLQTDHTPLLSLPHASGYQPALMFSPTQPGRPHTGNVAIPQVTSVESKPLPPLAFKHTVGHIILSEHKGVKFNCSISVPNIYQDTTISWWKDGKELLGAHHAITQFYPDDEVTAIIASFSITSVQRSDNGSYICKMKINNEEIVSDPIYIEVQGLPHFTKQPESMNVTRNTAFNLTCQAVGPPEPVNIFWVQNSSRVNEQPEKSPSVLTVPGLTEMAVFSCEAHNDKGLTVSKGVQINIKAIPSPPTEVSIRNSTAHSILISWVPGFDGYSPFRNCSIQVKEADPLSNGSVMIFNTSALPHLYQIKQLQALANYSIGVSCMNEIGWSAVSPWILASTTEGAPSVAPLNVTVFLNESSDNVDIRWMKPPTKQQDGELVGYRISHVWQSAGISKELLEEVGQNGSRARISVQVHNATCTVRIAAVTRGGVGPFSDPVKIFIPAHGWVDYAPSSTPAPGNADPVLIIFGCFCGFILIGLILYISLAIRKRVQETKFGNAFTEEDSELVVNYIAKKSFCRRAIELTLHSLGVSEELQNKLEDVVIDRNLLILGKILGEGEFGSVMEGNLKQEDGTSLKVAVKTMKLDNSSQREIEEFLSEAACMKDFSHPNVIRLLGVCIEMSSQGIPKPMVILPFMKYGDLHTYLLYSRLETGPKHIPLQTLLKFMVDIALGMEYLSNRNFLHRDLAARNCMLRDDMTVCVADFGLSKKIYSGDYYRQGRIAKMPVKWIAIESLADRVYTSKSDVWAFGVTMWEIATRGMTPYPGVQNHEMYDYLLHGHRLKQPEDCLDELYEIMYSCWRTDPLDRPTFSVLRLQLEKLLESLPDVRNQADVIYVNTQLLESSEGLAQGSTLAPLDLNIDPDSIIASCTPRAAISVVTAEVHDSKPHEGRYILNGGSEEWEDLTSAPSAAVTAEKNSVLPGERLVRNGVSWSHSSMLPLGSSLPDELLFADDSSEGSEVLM
A further data set concerns the target Fes (UniProt P07332). The description is as above.
Another data set has as its target EPHB1 (UniProt P54762). The description is as above.
A further data set concerns Fer (mouse). Described as above.
A further data set concerns the target FGFR1 (UniProt P11362). The data set is described as above.
A further data set addresses FGFR3 (UniProt P22607). The description is as above.
The subject of the next data set is c-Abl (mouse). Described as above.
The next data set concerns AncSZ. The data set is described as above.
Another data set concerns the target Hck (UniProt P08631). The description is as above.
A further data set concerns the target EPHB2 (UniProt P29323). The data set is described as above.
Another data set concerns the target Grb2 SH2 (UniProt P62993). The experiment in a line: SH2 binding enrichment of the phosphorylated peptide, bacterial display (enrichment ratio); higher = better substrate or ligand; peptides without Tyr show the background.
The target of another data set is SHP2-C SH2. The description is as above.
The next data set deals with c-Src SH2. Described as above.
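Throughout, for SH2 binding enrichment of the phosphorylated peptide, bacterial display: peptide library displayed on the E. coli surface as eCPX fusions, selected cells deep-sequenced, score is each peptide's frequency after selection divided by its frequency in the input.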
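Throughout, for phosphorylation enrichment, bacterial display: 11-residue human phosphosite peptides and single-mutation variants displayed on the E. coli surface, counted by deep sequencing, each peptide's frequency after selection divided by its frequency in the unselected input library; frequency after pTyr selection over input frequency; kinase dosed for 20-30% of maximal phosphorylation in three min.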

Jak2, sequence (O60674 whole entry, looked up): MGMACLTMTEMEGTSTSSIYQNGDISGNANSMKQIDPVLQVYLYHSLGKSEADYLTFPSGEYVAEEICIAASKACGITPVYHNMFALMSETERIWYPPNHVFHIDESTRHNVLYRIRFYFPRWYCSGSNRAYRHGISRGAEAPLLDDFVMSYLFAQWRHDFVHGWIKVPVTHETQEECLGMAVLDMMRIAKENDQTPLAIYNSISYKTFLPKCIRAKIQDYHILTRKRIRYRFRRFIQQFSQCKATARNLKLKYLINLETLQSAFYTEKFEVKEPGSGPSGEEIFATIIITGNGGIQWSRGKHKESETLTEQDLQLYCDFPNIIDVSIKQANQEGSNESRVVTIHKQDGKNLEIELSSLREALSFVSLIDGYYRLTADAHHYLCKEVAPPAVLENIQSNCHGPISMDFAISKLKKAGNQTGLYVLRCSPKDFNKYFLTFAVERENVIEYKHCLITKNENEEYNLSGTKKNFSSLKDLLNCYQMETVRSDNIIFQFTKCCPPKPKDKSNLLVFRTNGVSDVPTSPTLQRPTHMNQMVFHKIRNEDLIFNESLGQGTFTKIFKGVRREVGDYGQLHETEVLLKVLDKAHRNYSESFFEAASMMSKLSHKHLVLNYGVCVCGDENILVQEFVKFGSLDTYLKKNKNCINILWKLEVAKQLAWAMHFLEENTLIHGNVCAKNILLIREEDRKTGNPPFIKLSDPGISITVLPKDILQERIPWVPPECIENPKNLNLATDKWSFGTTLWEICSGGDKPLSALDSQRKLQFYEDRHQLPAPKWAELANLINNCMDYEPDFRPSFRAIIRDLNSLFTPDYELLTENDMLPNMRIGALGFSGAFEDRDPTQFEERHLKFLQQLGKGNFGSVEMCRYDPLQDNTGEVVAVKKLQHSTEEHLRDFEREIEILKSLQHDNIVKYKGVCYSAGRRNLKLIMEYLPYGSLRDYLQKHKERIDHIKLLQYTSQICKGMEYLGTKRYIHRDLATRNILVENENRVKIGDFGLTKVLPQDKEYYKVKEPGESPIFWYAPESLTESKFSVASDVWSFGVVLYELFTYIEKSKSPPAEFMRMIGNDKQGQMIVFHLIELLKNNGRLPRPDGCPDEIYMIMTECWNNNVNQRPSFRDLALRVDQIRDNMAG
Hck, sequence (P08631 whole entry, looked up): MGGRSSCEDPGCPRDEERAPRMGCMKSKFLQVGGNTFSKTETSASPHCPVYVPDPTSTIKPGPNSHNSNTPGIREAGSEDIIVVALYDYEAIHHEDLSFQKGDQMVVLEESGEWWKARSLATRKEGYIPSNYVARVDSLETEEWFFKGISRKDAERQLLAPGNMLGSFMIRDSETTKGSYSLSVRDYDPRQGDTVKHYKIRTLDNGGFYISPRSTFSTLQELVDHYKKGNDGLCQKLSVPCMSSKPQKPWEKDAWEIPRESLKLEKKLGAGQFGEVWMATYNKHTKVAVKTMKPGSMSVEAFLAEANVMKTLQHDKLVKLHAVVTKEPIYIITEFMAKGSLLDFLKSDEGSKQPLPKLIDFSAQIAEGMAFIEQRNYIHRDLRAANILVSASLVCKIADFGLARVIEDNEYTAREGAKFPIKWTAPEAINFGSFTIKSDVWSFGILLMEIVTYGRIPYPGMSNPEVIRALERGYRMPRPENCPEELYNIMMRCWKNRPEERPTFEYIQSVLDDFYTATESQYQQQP
FGFR3, sequence (P22607 whole entry, looked up): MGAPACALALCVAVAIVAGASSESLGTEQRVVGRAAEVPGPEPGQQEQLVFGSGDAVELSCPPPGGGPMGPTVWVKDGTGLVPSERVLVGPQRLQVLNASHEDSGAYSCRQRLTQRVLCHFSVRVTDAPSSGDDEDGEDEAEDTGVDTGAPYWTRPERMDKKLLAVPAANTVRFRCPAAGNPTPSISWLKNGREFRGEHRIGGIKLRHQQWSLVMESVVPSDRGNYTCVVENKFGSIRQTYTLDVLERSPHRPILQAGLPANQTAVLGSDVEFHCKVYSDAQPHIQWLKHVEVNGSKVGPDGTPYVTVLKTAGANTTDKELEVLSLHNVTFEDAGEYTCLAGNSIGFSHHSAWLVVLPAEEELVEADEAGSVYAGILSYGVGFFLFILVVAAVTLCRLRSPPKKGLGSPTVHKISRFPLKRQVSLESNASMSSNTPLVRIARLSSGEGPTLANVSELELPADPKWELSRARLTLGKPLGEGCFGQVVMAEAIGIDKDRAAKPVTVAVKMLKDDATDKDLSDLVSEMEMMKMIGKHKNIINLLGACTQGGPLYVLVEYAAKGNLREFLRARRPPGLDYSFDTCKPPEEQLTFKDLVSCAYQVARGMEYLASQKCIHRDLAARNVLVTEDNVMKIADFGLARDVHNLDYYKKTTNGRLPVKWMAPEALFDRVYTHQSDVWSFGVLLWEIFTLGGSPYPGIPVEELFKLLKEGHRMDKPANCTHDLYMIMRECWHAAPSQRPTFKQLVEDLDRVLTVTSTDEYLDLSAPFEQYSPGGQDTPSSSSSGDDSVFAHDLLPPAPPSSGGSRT
FGFR1, sequence (P11362 whole entry, looked up): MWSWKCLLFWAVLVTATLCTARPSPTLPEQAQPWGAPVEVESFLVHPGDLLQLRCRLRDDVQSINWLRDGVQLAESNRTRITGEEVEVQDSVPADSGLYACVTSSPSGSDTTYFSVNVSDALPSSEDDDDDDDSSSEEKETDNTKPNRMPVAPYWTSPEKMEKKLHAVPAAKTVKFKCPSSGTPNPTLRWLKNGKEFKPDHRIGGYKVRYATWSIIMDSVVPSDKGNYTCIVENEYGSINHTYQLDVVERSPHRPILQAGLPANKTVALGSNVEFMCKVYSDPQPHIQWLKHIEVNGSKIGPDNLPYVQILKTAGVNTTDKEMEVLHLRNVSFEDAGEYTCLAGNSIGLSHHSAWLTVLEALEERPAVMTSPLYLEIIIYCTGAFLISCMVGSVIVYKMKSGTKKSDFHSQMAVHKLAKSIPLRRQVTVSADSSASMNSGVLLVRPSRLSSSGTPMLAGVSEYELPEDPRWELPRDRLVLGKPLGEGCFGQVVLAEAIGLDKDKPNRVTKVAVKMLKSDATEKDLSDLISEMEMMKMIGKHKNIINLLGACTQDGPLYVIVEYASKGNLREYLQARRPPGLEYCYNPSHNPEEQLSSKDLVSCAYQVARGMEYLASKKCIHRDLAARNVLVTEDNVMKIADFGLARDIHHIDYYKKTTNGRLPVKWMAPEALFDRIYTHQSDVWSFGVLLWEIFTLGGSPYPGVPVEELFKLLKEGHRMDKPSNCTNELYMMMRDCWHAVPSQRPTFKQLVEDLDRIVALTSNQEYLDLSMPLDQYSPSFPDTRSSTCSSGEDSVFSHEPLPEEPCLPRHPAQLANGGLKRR
Grb2 SH2, sequence (P62993 whole entry, looked up): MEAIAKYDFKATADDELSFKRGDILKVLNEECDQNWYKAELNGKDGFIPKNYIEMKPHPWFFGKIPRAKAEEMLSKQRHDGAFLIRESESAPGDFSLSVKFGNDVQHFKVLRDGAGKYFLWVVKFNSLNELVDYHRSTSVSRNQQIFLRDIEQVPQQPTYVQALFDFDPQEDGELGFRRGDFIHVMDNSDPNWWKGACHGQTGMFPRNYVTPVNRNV
Fyn, sequence (P06241 whole entry, looked up): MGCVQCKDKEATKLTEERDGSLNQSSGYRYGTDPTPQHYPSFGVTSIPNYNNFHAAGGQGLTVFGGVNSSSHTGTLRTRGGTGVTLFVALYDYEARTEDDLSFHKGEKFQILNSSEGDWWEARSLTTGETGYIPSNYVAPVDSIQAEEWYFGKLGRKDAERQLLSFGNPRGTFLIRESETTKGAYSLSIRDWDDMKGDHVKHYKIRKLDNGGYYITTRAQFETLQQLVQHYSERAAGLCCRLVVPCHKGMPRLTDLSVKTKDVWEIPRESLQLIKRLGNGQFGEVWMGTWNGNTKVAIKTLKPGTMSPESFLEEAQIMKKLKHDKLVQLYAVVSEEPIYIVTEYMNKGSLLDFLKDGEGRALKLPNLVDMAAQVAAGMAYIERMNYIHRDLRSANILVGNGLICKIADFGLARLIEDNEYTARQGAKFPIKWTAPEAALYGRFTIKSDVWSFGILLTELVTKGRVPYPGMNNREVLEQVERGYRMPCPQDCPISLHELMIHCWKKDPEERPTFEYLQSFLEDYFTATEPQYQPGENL

As for SLFNGYVFSGV [NEIL3_Y71_YF], the phosphorylation enrichment stood at 0.908 with Jak2; 0.451 with Fyn; 0.418 in the data set with c-Src; 0.472 with MERTK; 0.77 with Fes; 0.514 with EPHB1. For the same sequence, the phosphorylation enrichment in the data set with Fer (mouse) came out at 0.494; in the data set with FGFR1, 0.562; with FGFR3, 0.584; in the data set on c-Abl (mouse) it was 0.624; in the data set on AncSZ, 0.779; in the data set with Hck, 0.555. In the data set with EPHB2, the phosphorylation enrichment is 0.567. Further, the SH2 binding enrichment with Grb2 SH2 stood at 0.71; with SHP2-C SH2, 0.719; with c-Src SH2 it was 0.967.

Turning to SSTASYFEAPG [RFX2_Y108], the phosphorylation enrichment turned out to be 0.968 with Jak2; 0.442 with Fyn; 0.432 with c-Src; 0.449 with MERTK; 0.802 with Fes; 0.445 with EPHB1. Also, the phosphorylation enrichment turned out to be 0.378 in the data set with Fer (mouse); 4.92 with FGFR1; 3.47 with FGFR3; 0.531 in the data set with c-Abl (mouse); 0.789 with AncSZ; 0.433 with Hck. Besides, the phosphorylation enrichment with EPHB2 worked out at 0.487. Moreover, the SH2 binding enrichment with Grb2 SH2 worked out at 0.862; in the data set with SHP2-C SH2, 0.454; with c-Src SH2, 0.567.

As for TVEDHDFEGGI [TKT_Y563_Y563D_YF], the phosphorylation enrichment was 1.05 with Jak2; 0.561 with Fyn; 0.472 in the data set on c-Src; 0.452 with MERTK; 1.14 with Fes; 0.692 with EPHB1. Also, the phosphorylation enrichment in the data set on Fer (mouse) came out at 0.525; in the data set with FGFR1, 0.578; with FGFR3, 0.873; in the data set with c-Abl (mouse), 0.765; in the data set with AncSZ, 1.06; with Hck, 0.538. In addition, in the data set with EPHB2, the phosphorylation enrichment came to 0.543. Also, the SH2 binding enrichment in the data set with Grb2 SH2 was 0.737; with SHP2-C SH2, 0.515; with c-Src SH2, 0.422.

For the sequence ERRLIYTSDPK [VPS13D_Y864], the phosphorylation enrichment in the data set with Jak2 turned out to be 0.586; in the data set with Fyn it was 0.444; with c-Src it was 0.437; in the data set with MERTK, 0.444; with Fes, 0.64; in the data set with EPHB1, 0.307. Besides, the phosphorylation enrichment with Fer (mouse) is 0.43; in the data set with FGFR1 it was 0.486; with FGFR3, 0.372; in the data set on c-Abl (mouse), 0.472; in the data set with AncSZ it was 0.563; in the data set with Hck, 0.39. In addition, the phosphorylation enrichment with EPHB2 was determined as 0.431. The SH2 binding enrichment with Grb2 SH2 was determined as 0.872; with SHP2-C SH2, 0.663; with c-Src SH2 it was 0.507.

On to KRLKDYLTVLQ [USP25_Y425], for which the phosphorylation enrichment with Jak2 was 0.625; with Fyn, 0.349; in the data set with c-Src it was 0.403; in the data set with MERTK it was 0.352; with Fes, 0.664; with EPHB1 it was 0.422. The phosphorylation enrichment stood at 0.431 in the data set on Fer (mouse); 0.506 in the data set with FGFR1; 0.522 in the data set with FGFR3; 0.783 in the data set with c-Abl (mouse); 0.679 in the data set with AncSZ; 0.322 in the data set with Hck. The phosphorylation enrichment with EPHB2 was determined as 0.412. For the same sequence, the SH2 binding enrichment in the data set with Grb2 SH2 is 0.933; with SHP2-C SH2, 0.573; with c-Src SH2, 0.569.

Regarding FSQQTYYRVSN [ABCD1_Y180], the phosphorylation enrichment with Jak2 is 6.78; with Fyn, 1.18; in the data set with c-Src it was 3.18; with MERTK it was 2.85; with Fes, 0.756; in the data set with EPHB1 it was 1.83. Besides, the phosphorylation enrichment in the data set with Fer (mouse) was 0.392; with FGFR1 it was 6.2; with FGFR3 it was 4.51; with c-Abl (mouse) it was 0.72; in the data set on AncSZ, 0.831; in the data set with Hck, 3.2. In the data set with EPHB2, the phosphorylation enrichment was found to be 1.06. In addition, the figures for the SH2 binding enrichment in the data set with Grb2 SH2, in the data set with SHP2-C SH2 and with c-Src SH2 were 0.86, 0.672 and 0.82, respectively.

For TIMTDYNPNFC [ALK_Y1092_YF], the phosphorylation enrichment with Jak2 stood at 0.795; with Fyn it was 0.499; in the data set with c-Src, 0.545; with MERTK, 0.395; with Fes it was 0.917; with EPHB1, 0.498. In addition, the phosphorylation enrichment is 0.373 in the data set on Fer (mouse); 0.533 in the data set with FGFR1; 0.549 with FGFR3; 0.783 in the data set with c-Abl (mouse); 0.858 in the data set on AncSZ; 0.47 with Hck. In addition, the phosphorylation enrichment in the data set with EPHB2 worked out at 0.491. Also, the SH2 binding enrichment stood at 0.999 with Grb2 SH2, 0.674 with SHP2-C SH2 and 0.633 in the data set with c-Src SH2.

Consider SKKSTYQALLD [GANC_Y43], for which the phosphorylation enrichment with Jak2 was determined as 0.907; with Fyn it was 0.447; with c-Src it was 0.423; in the data set with MERTK, 0.403; with Fes it was 0.541; with EPHB1, 0.394. Further, the phosphorylation enrichment in the data set on Fer (mouse) came to 0.305; with FGFR1, 0.416; with FGFR3 it was 0.405; in the data set with c-Abl (mouse), 0.382; in the data set with AncSZ, 0.563; in the data set with Hck, 0.433. For the same sequence, the phosphorylation enrichment in the data set with EPHB2 was 0.369. Further, the figures for the SH2 binding enrichment in the data set with Grb2 SH2, in the data set with SHP2-C SH2 and with c-Src SH2 were 0.788, 0.595 and 0.555, respectively.

With EREFKYDAHNF [OAT_Y50_G51D_YF], the phosphorylation enrichment in the data set with Jak2 was 0.914; with Fyn, 0.361; in the data set on c-Src it was 0.477; with MERTK it was 0.512; with Fes, 1.02; in the data set with EPHB1, 0.624. In addition, the phosphorylation enrichment came out at 0.832 in the data set with Fer (mouse); 0.643 with FGFR1; 0.693 with FGFR3; 0.645 in the data set with c-Abl (mouse); 0.915 in the data set on AncSZ; 0.558 with Hck. Further, in the data set with EPHB2, the phosphorylation enrichment worked out at 0.445. In addition, the SH2 binding enrichment with Grb2 SH2 was 0.803; with SHP2-C SH2 it was 0.629; in the data set with c-Src SH2, 0.543.
